Assay results as given in PMC4038756 (Theranostics, 2014).

Tests used:
Assay type in all cases: in vivo, NOD/SCID mice
[1] = Small animal PET/CT imaging, H2009 tumor bearing mice; details: NOD/SCID, mouse, iv, total radioactivity
[2] = tested on: H2009 (αvβ6^+) xenografts; assay: as above; details: for Tumor uptake: quantitative PET, mean ± s.d.; for Tumor uptake / Tumor/Lung: n = 3; for Tumor/Lung: ratio of PET uptakes; for tumor uptake increase as compared to 64Cu-M10: H2009 tumor, all three time points (1 h, 4 h, 24 h p.i.)
[3] = Small animal PET/CT imaging, H460 tumor bearing mice; details: NOD/SCID, mouse, iv, total radioactivity
H460 (αvβ6^-) xenografts = assay: as above; details: H460 tumor bearing mice, quantitative PET, mean ± s.d., n = 3
[4] = H2009 tumor bearing mice, 1 h p.i.
[5] = H2009 tumor bearing mice, 4 h p.i.
[6] = H2009 tumor bearing mice, 24 h p.i.

CC(C)C[C@H](NC(=O)[C@H](CCC(N)=O)NC(=O)[C@H](CCCNC(=N)N)NC(=O)[C@H](CC(C)C)NC(=O)[C@@H](NC(=O)[C@H](C)NC(=O)[C@H](CC(C)C)NC(=O)[C@H](CC(=O)O)NC(=O)CNC(=O)[C@@H](N)CCCNC(=N)N)[C@@H](C)O)C(=O)NCCOCCOCCOCCOCCOCCOCCOCCOCCOCCOCCOCCOCCC(=O)N[C@@H](CSC1CC(=O)N(CCNC(=O)CCC(C(=O)O)N2CCCN3CCN(CCCN(C(CCC(=O)NCCN4C(=O)CC(SC[C@H](NC(=O)CCOCCOCCOCCOCCOCCOCCOCCOCCOCCOCCOCCOCCNC(=O)[C@H](CC(C)C)NC(=O)[C@H](CCC(N)=O)NC(=O)[C@H](CCCNC(=N)N)NC(=O)[C@H](CC(C)C)NC(=O)[C@@H](NC(=O)[C@H](C)NC(=O)[C@H](CC(C)C)NC(=O)[C@H](CC(=O)O)NC(=O)CNC(=O)[C@@H](N)CCCNC(=N)N)[C@@H](C)O)C(N)=O)C4=O)C(=O)O)CC3)CC2)C1=O)C(N)=O (some centres unmarked) [^64Cu-(M10)2, metal not drawn]
tissue uptake at 1 h ([1]; heart): 1.56 ± 0.15 %ID/g | tissue uptake at 4 h ([1]; heart): 0.71 ± 0.03 %ID/g | tissue uptake at 24 h ([1]; heart): 0.32 ± 0.03 %ID/g | tissue uptake at 1 h ([1]; kidney): 53.6 ± 8.68 %ID/g | tissue uptake at 4 h ([1]; kidney): 46.2 ± 10.4 %ID/g | tissue uptake at 24 h ([1]; kidney): 27.3 ± 7.3 %ID/g | tissue uptake at 1 h ([1]; liver): 2.13 ± 0.73 %ID/g | tissue uptake at 4 h ([1]; liver): 1.9 %ID/g | tissue uptake at 24 h ([1]; liver): 1.26 ± 0.25 %ID/g | tissue uptake at 1 h ([1]; lung): 1.66 ± 0.15 %ID/g | tissue uptake at 4 h ([1]; lung): 0.72 ± 0.02 %ID/g | tissue uptake at 24 h ([1]; lung): 0.4 ± 0.03 %ID/g | tissue uptake at 1 h ([1]; muscle): 0.87 ± 0.04 %ID/g | tissue uptake at 4 h ([1]; muscle): 0.3 ± 0.02 %ID/g | tissue uptake at 24 h ([1]; muscle): 0.25 ± 0.05 %ID/g | increase of kidney uptake as compared to 64Cu-M10 ([2]; H2009 tumor bearing mice, 1 h, 4 h, 24 h p.i.): ~6 fold | Tumor uptake [2, 4]: 1.6 ± 0.20 %ID/g | Tumor/Lung [2, 4]: 1.0 ± 0.25 | Tumor uptake [2, 5]: 0.85 ± 0.19 %ID/g | Tumor/Lung [2, 5]: 1.2 ± 0.19 | Tumor uptake [2, 6]: 0.79 ± 0.03 %ID/g | Tumor/Lung [2, 6]: 1.9 ± 0.04 | tumor uptake increase as compared to 64Cu-M10 [2]: ~3 fold | tissue uptake at 1 h ([3]; heart): 1.7 %ID/g | tissue uptake at 4 h ([3]; heart): 1.25 ± 0.07 %ID/g | tissue uptake at 24 h ([3]; heart): 0.83 ± 0.17 %ID/g | tissue uptake at 1 h ([3]; kidney): 85.4 ± 17.5 %ID/g | tissue uptake at 4 h ([3]; kidney): 92.9 ± 11.3 %ID/g | tissue uptake at 24 h ([3]; kidney): 68.9 ± 8.13 %ID/g | tissue uptake at 1 h ([3]; liver): 5.45 ± 0.49 %ID/g | tissue uptake at 4 h ([3]; liver): 4.8 ± 0.14 %ID/g | tissue uptake at 24 h ([3]; liver): 3.25 ± 0.21 %ID/g | tissue uptake at 1 h ([3]; lung): 1.5 ± 0.14 %ID/g | tissue uptake at 4 h ([3]; lung): 1.15 ± 0.07 %ID/g | tissue uptake at 24 h ([3]; lung): 0.77 ± 0.01 %ID/g | tissue uptake at 1 h ([3]; muscle): 0.45 ± 0.18 %ID/g | tissue uptake at 4 h ([3]; muscle): 0.31 ± 0.06 %ID/g | tissue uptake at 24 h ([3]; muscle): 0.38 ± 0.08 %ID/g | Tumor uptake (H460 (αvβ6^-) xenografts; 1 h p.i.): 0.71 ± 0.05 %ID/g | Tumor uptake (H460 (αvβ6^-) xenografts; 4 h p.i.): 0.83 ± 0.04 %ID/g | Tumor uptake (H460 (αvβ6^-) xenografts; 24 h p.i.): 0.53 ± 0.17 %ID/g

CC(=O)N[C@@H](CCCNC(=N)N)C(=O)NCC(=O)N[C@@H](CC(=O)O)C(=O)N[C@@H](CC(C)C)C(=O)N[C@@H](C)C(=O)N[C@H](C(=O)N[C@@H](CC(C)C)C(=O)N[C@@H](CCCNC(=N)N)C(=O)N[C@@H](CCC(N)=O)C(=O)N[C@@H](CC(C)C)C(=O)NCCOCCOCCOCCOCCOCCOCCOCCOCCOCCOCCOCCOCCC(=O)N[C@@H](CSC1CC(=O)N(CCC(=O)NCCCC[C@H](NC(=O)CCN2C(=O)CC(SC[C@H](NC(=O)CCOCCOCCOCCOCCOCCOCCOCCOCCOCCOCCOCCOCCNC(=O)[C@H](CC(C)C)NC(=O)[C@H](CCC(N)=O)NC(=O)[C@H](CCCNC(=N)N)NC(=O)[C@H](CC(C)C)NC(=O)[C@@H](NC(=O)[C@H](C)NC(=O)[C@H](CC(C)C)NC(=O)[C@H](CC(=O)O)NC(=O)CNC(=O)[C@H](CCCNC(=N)N)NC(C)=O)[C@@H](C)O)C(N)=O)C2=O)C(=O)NCCC(=O)N[C@@H](CSC2CC(=O)N(CCNC(=O)CCC(C(=O)O)N3CCCN4CCN(CCCN(CC(=O)O)CC4)CC3)C2=O)C(N)=O)C1=O)C(N)=O)[C@@H](C)O (some centres unmarked) [^64Cu-AcD10, metal not drawn]
tissue uptake at 1 h ([1]; heart): 0.78 ± 0.05 %ID/g | tissue uptake at 24 h ([1]; heart): 0.21 ± 0.01 %ID/g | tissue uptake at 1 h ([1]; kidney): 18.8 ± 2.2 %ID/g | tissue uptake at 4 h ([1]; kidney): 19.1 ± 3.3 %ID/g | tissue uptake at 24 h ([1]; kidney): 5.4 ± 0.87 %ID/g | tissue uptake at 1 h ([1]; liver): 1.08 ± 0.11 %ID/g | tissue uptake at 4 h ([1]; liver): 0.72 ± 0.09 %ID/g | tissue uptake at 24 h ([1]; liver): 0.55 ± 0.1 %ID/g | tissue uptake at 1 h ([1]; lung): 1.33 ± 0.23 %ID/g | tissue uptake at 4 h ([1]; lung): 0.65 ± 0.03 %ID/g | tissue uptake at 24 h ([1]; lung): 0.34 ± 0.08 %ID/g | tissue uptake at 1 h ([1]; muscle): 0.83 ± 0.14 %ID/g | tissue uptake at 4 h ([1]; muscle): 0.42 ± 0.05 %ID/g | tissue uptake at 24 h ([1]; muscle): 0.32 ± 0.1 %ID/g | Tumor uptake [2, 4]: 1.46 ± 0.15 %ID/g | Tumor/Lung [2, 4]: 1.1 ± 0.27 | Tumor uptake [2, 5]: 0.98 ± 0.01 %ID/g | Tumor/Lung [2, 5]: 1.51 ± 0.03 | Tumor uptake [2, 6]: 0.68 ± 0.02 %ID/g | Tumor/Lung [2, 6]: 2.0 ± 0.08 | tumor uptake increase as compared to 64Cu-M10 [2]: ~3 fold | tissue uptake at 1 h ([3]; heart): 0.82 ± 0.05 %ID/g | tissue uptake at 4 h ([3]; heart): 0.5 ± 0.04 %ID/g | tissue uptake at 24 h ([3]; heart): 0.26 %ID/g | tissue uptake at 1 h ([3]; kidney): 19.5 ± 0.36 %ID/g | tissue uptake at 4 h ([3]; kidney): 18.4 ± 0.92 %ID/g | tissue uptake at 24 h ([3]; kidney): 3.43 ± 1.8 %ID/g | tissue uptake at 1 h ([3]; liver): 1.13 ± 0.15 %ID/g | tissue uptake at 4 h ([3]; liver): 0.95 ± 0.06 %ID/g | tissue uptake at 24 h ([3]; liver): 0.71 ± 0.04 %ID/g | tissue uptake at 1 h ([3]; lung): 1.02 ± 0.06 %ID/g | tissue uptake at 4 h ([3]; lung): 0.65 ± 0.02 %ID/g | tissue uptake at 24 h ([3]; lung): 0.24 ± 0.1 %ID/g | tissue uptake at 1 h ([3]; muscle): 0.61 ± 0.12 %ID/g | tissue uptake at 4 h ([3]; muscle): 0.35 ± 0.05 %ID/g | tissue uptake at 24 h ([3]; muscle): 0.19 ± 0.13 %ID/g | Tumor uptake (H460 (αvβ6^-) xenografts; 1 h p.i.): 0.73 ± 0.13 %ID/g | Tumor uptake (H460 (αvβ6^-) xenografts; 4 h p.i.): 0.45 ± 0.11 %ID/g | Tumor uptake (H460 (αvβ6^-) xenografts; 24 h p.i.): 0.35 ± 0.05 %ID/g
